B1: S1P-A: amino acids 23-1052 of SEQ ID NO:1 (protein)
chain: DRLGKKAFEKASCPSCSHLTLKVEFSSTVVEYEYIVAFNGYFTAKARNSFISSALKSSEVDNWRIIPRNNPSSDYPSDFEVIQIKEKQKAGLLTLEDHPNIKRVTPQRKVFRSLKFAESDPIVPCNETRWSQKWQSSRPLRRASLSLGSGFWHATGRHSSRRLLRAIPRQVAQTLQADVLWQMGYTGANVRVAVFDTGLSEKHPHFKNVKERTNWTNERTLDDGLGHGTFVAGVIASMRECQGFAPDAELHIFRVFTNNQVSYTSWFLDAFNYAILKKIDVLNLSIGGPDFMDHPFVDKVWELTANNVIMVSAIGNDGPLYGTLNNPADQMDVIGVGGIDFEDNIARFSSRGMTTWELPGGYGRVKPDIVTYGAGVRGSGVKGGCRALSGTSVASPVVAGAVTLLVSTVQKRELVNPASVKQALIASARRLPGVNMFEQGHGKLDLLRAYQILSSYKPQASLSPSYIDLTECPYMWPYCSQPIYYGGMPTIVNVTILNGMGVTGRIVDKPEWRPYLPQNGDNIEVAFSYSSVLWPWSGYLAISISVTKKAASWEGIAQGHIMITVASPAETEAKNGAEHTSTVKLPIKVKIIPTPPRSKRVLWDQYHNLRYPPGYFPRDNLRMKNDPLDWNGDHVHTNFRDMYQHLRSMGYFVEVLGAPFTCFDATQYGTLLMVDSEEEYFPEEIAKLRRDVDNGLSLVIFSDWYNTSVMRKVKFYDENTRQWWMPDTGGANIPALNELLSVWNMGFSDGLYEGEFALANHDMYYASGCSIAKFPEDGVVITQTFKDQGLEVLKQETAVVENVPILGLYQIPAEGGGRIVLYGDSNCLDDSHRQKDCFWLLDALLQYTSYGVNPPSLSHSGNRQRPPSGAGLAPPERMEGNHLHRYSKVLEAHLGDPKPRPLPACPHLSWAKPQPLNETAPSNLWKHQKLLSIDLDKVVLPNFRSNRPQVRPLSPGESGAWDIPGGIMPGRYNQEVGQTIPVFAFLGAMVALAFFVVQISKAKSRPKRRRPRAKRPQLTQQTHPPRTPSV
B2: Site-B mutant: S1P with amino acids 134-137 mutated from RSLK to AAAA (protein)
chain: MKLINIWLLLLVVLLCGKKHLGDRLGKKAFEKASCPSCSHLTLKVEFSSTVVEYEYIVAFNGYFTAKARNSFISSALKSSEVDNWRIIPRNNPSSDYPSDFEVIQIKEKQKAGLLTLEDHPNIKRVTPQRKVFAAAAFAESDPIVPCNETRWSQKWQSSRPLRRASLSLGSGFWHATGRHSSRRLLRAIPRQVAQTLQADVLWQMGYTGANVRVAVFDTGLSEKHPHFKNVKERTNWTNERTLDDGLGHGTFVAGVIASMRECQGFAPDAELHIFRVFTNNQVSYTSWFLDAFNYAILKKIDVLNLSIGGPDFMDHPFVDKVWELTANNVIMVSAIGNDGPLYGTLNNPADQMDVIGVGGIDFEDNIARFSSRGMTTWELPGGYGRVKPDIVTYGAGVRGSGVKGGCRALSGTSVASPVVAGAVTLLVSTVQKRELVNPASVKQALIASARRLPGVNMFEQGHGKLDLLRAYQILSSYKPQASLSPSYIDLTECPYMWPYCSQPIYYGGMPTIVNVTILNGMGVTGRIVDKPEWRPYLPQNGDNIEVAFSYSSVLWPWSGYLAISISVTKKAASWEGIAQGHIMITVASPAETEAKNGAEHTSTVKLPIKVKIIPTPPRSKRVLWDQYHNLRYPPGYFPRDNLRMKNDPLDWNGDHVHTNFRDMYQHLRSMGYFVEVLGAPFTCFDATQYGTLLMVDSEEEYFPEEIAKLRRDVDNGLSLVIFSDWYNTSVMRKVKFYDENTRQWWMPDTGGANIPALNELLSVWNMGFSDGLYEGEFALANHDMYYASGCSIAKFPEDGVVITQTFKDQGLEVLKQETAVVENVPILGLYQIPAEGGGRIVLYGDSNCLDDSHRQKDCFWLLDALLQYTSYGVNPPSLSHSGNRQRPPSGAGLAPPERMEGNHLHRYSKVLEAHLGDPKPRPLPACPHLSWAKPQPLNETAPSNLWKHQKLLSIDLDKVVLPNFRSNRPQVRPLSPGESGAWDIPGGIMPGRYNQEVGQTIPVFAFLGAMVALAFFVVQISKAKSRPKRRRPRAKRPQLTQQTHPPRTPSV
B3: S1P-C: amino acids 187-1052 of SEQ ID NO:1 (protein)
chain: RAIPRQVAQTLQADVLWQMGYTGANVRVAVFDTGLSEKHPHFKNVKERTNWTNERTLDDGLGHGTFVAGVIASMRECQGFAPDAELHIFRVFTNNQVSYTSWFLDAFNYAILKKIDVLNLSIGGPDFMDHPFVDKVWELTANNVIMVSAIGNDGPLYGTLNNPADQMDVIGVGGIDFEDNIARFSSRGMTTWELPGGYGRVKPDIVTYGAGVRGSGVKGGCRALSGTSVASPVVAGAVTLLVSTVQKRELVNPASVKQALIASARRLPGVNMFEQGHGKLDLLRAYQILSSYKPQASLSPSYIDLTECPYMWPYCSQPIYYGGMPTIVNVTILNGMGVTGRIVDKPEWRPYLPQNGDNIEVAFSYSSVLWPWSGYLAISISVTKKAASWEGIAQGHIMITVASPAETEAKNGAEHTSTVKLPIKVKIIPTPPRSKRVLWDQYHNLRYPPGYFPRDNLRMKNDPLDWNGDHVHTNFRDMYQHLRSMGYFVEVLGAPFTCFDATQYGTLLMVDSEEEYFPEEIAKLRRDVDNGLSLVIFSDWYNTSVMRKVKFYDENTRQWWMPDTGGANIPALNELLSVWNMGFSDGLYEGEFALANHDMYYASGCSIAKFPEDGVVITQTFKDQGLEVLKQETAVVENVPILGLYQIPAEGGGRIVLYGDSNCLDDSHRQKDCFWLLDALLQYTSYGVNPPSLSHSGNRQRPPSGAGLAPPERMEGNHLHRYSKVLEAHLGDPKPRPLPACPHLSWAKPQPLNETAPSNLWKHQKLLSIDLDKVVLPNFRSNRPQVRPLSPGESGAWDIPGGIMPGRYNQEVGQTIPVFAFLGAMVALAFFVVQISKAKSRPKRRRPRAKRPQLTQQTHPPRTPSV
B4: Site B+C mutant: S1P containing both the Site-B and Site-C mutations (protein)
chain: DGGRSEQKLISEEDLNGEQKLISEEDLNGEQKLISEEDLNSSGRLGKKAFEKASCPSCSHLTLKVEFSSTVVEYEYIVAFNGYFTAKARNSFISSALKSSEVDNWRIIPRNNPSSDYPSDFEVIQIKEKQKAGLLTLEDHPNIKRVTPQRKVFAAAAFAESDPIVPCNETRWSQKWQSSRPLVAASLSLGSGFWHATGRHSSAAAAAAIPRQVAQTLQADVLWQMGYTGANVRVAVFDTGLSEKHPHFKNVKERTNWTNERTLDDGLGHGTFVAGVIASMRECQGFAPDAELHIFRVFTNNQVSYTSWFLDAFNYAILKKIDVLNLSIGGPDFMDHPFVDKVWELTANNVIMVSAIGNDGPLYGTLNNPADQMDVIGVGGIDFEDNIARFSSRGMTTWELPGGYGRVKPDIVTYGAGVRGSGVKGGCRALSGTSVASPVVAGAVTLLVSTVQKRELVNPASVKQALIASARRLPGVNMFEQGHGKLDLLRAYQILSSYKPQASLSPSYIDLTECPYMWPYCSQPIYYGGMPTIVNVTILNGMGVTGRIVDKPEWRPYLPQNGDNIEVAFSYSSVLWPWSGYLAISISVTKKAASWEGIAQGHIMITVASPAETEAKNGAEHTSTVKLPIKVKIIPTPPRSKRVLWDQYHNLRYPPGYFPRDNLRMKNDPLDWNGDHVHTNFRDMYQHLRSMGYFVEVLGAPFTCFDATQYGTLLMVDSEEEYFPEEIAKLRRDVDNGLSLVIFSDWYNTSVMRKVKFYDENTRQWWMPDTGGANIPALNELLSVWNMGFSDGLYEGEFALANHDMYYASGCSIAKFPEDGVVITQTFKDQGLEVLKQETAVVENVPILGLYQIPAEGGGRIVLYGDSNCLDDSHRQKDCFWLLDALLQYTSYGVNPPSLSHSGNRQRPPSGAGLAPPERMEGNHLHRYSKVLEAHLGDPKPRPLPACPHLSWAKPQPLNETAPSNLWKHQKLLSIDLDKVVLPNFRSNRPQVRPLSPGESGAWDIPGGIMPGRYNQEVGQTIPVFAFLGAMVALAFFVVQISKAKSRPKRRRPRAKRPQLTQQTHPPRTPSV
B5: S1P-B: amino acids 138-1052 of SEQ ID NO:1 (protein)
chain: FAESDPIVPCNETRWSQKWQSSRPLRRASLSLGSGFWHATGRHSSRRLLRAIPRQVAQTLQADVLWQMGYTGANVRVAVFDTGLSEKHPHFKNVKERTNWTNERTLDDGLGHGTFVAGVIASMRECQGFAPDAELHIFRVFTNNQVSYTSWFLDAFNYAILKKIDVLNLSIGGPDFMDHPFVDKVWELTANNVIMVSAIGNDGPLYGTLNNPADQMDVIGVGGIDFEDNIARFSSRGMTTWELPGGYGRVKPDIVTYGAGVRGSGVKGGCRALSGTSVASPVVAGAVTLLVSTVQKRELVNPASVKQALIASARRLPGVNMFEQGHGKLDLLRAYQILSSYKPQASLSPSYIDLTECPYMWPYCSQPIYYGGMPTIVNVTILNGMGVTGRIVDKPEWRPYLPQNGDNIEVAFSYSSVLWPWSGYLAISISVTKKAASWEGIAQGHIMITVASPAETEAKNGAEHTSTVKLPIKVKIIPTPPRSKRVLWDQYHNLRYPPGYFPRDNLRMKNDPLDWNGDHVHTNFRDMYQHLRSMGYFVEVLGAPFTCFDATQYGTLLMVDSEEEYFPEEIAKLRRDVDNGLSLVIFSDWYNTSVMRKVKFYDENTRQWWMPDTGGANIPALNELLSVWNMGFSDGLYEGEFALANHDMYYASGCSIAKFPEDGVVITQTFKDQGLEVLKQETAVVENVPILGLYQIPAEGGGRIVLYGDSNCLDDSHRQKDCFWLLDALLQYTSYGVNPPSLSHSGNRQRPPSGAGLAPPERMEGNHLHRYSKVLEAHLGDPKPRPLPACPHLSWAKPQPLNETAPSNLWKHQKLLSIDLDKVVLPNFRSNRPQVRPLSPGESGAWDIPGGIMPGRYNQEVGQTIPVFAFLGAMVALAFFVVQISKAKSRPKRRRPRAKRPQLTQQTHPPRTPSV

Legend:
[1] = system: furin; settings: cited from earlier work
[2] = system: SREBP-2; assay: Immunoblot of cleavage of HSV-tagged SREBP-2 in transfected SRD-12B cells; type: cell-based, hamster; settings: for cleavage of SREBP-2 by S1P or S1P mutant: SRD-12B cells, HSV-tagged SREBP-2
Method: On day 0, SRD-12B cells were set up at a density of 6×10^5 cells/60-mm dish in medium B. On day 1, cells were transfected with 4 μg of the indicated plasmid DNA plus 12 μl of LipofectAMINE™ reagent (Life Technologies) according to the manufacturer's instructions with modifications as follows. LipofectAMINE™/DNA complexes were formed in 1 ml of serum-free medium for 15 min at room temperature, and 0.5 ml were added to 1 ml of serum-free medium per dish. […] After incubation at 37 ° C. for 20 h, the cells received N-acetyl-leucinal-leucinal norleucinal (ALLN) at a final concentration of 25 μg/ml. […] After boiling for 5 min, the proteins were subjected to SDS-PAGE and transferred to Hybond-C Extra nitrocellulose filters (Amersham). The filters were incubated with the antibodies described in the figure legends. […] Gels were calibrated with prestained molecular weight markers (New England Biolabs, Beverly, Mass.). Filters were exposed to X-Omat Blue XB-1 film (Kodak, Rochester, N.Y.) with intensifying screens at room temperature for the indicated time.
Cell membranes and nuclear extracts were subjected to electrophoresis and blotted with an antibody against the HSV epitope-tag.
In a more direct test for S1P catalytic activity, the mutant plasmids were transfected into the SRD-12B cells together with pTK-HSV-BP2. Membranes and nuclear extracts were subjected to SDS-PAGE and blotted with an antibody against the HSV-tagged SREBP-2 (FIG. 9B).
The inventors cotransfected cDNAs encoding wild-type S1P or one of the mutants. Cell membrane pellets and nuclear extracts were subjected to SDS-PAGE. and the NH2 -terminus of SREBP-2 was visualized by immunoblotting with anti-HSV (FIG. 16A).

Molecule	cleavage of SREBP-2 by S1P or S1P mutant [2]	also measured
O=C(O)CN(CCN(CC(=O)O)CC(=O)O)CC(=O)O [EDTA]		inhibition of furin ([1]; Nakayama, 1997, Molloy et al., 1992): totally inhibited
furin: subtilisin-like protease, literature comparator		Kcat (furin in a similar assay) ([1]; Molloy et al., 1992): 1.6 mol/min per mol of enzyme; pH optimum ([1]; furin and the prohormone convertases, Nakayama, 1997): 6-7
B1	inactive	
B2	weak activity	expression level required for SREBP-2 cleavage, compared to wild-type S1P ([2]; pTK plasmids, FIG. 16): > 10 -fold
B3	active	
B4	no detectable cleaved nuclear form	
B5	active	
